The source of these data is patent US9315837B2, “Desaturases of a green microalga and uses thereof” (Ben Gurion University of the Negev Research and Development …, priority 2010, dated 2016).

Data set [1] concerns supplied fatty acids in S. cerevisiae strain W303. The data set is described as follows: Functional expression of PiDes12, PiDes6 and PiDes5 in S. cerevisiae fed with fatty acid substrates, GC of FAMEs. The format is cell-based, Saccharomyces cerevisiae. The note with it: for substrate conversion (ARA emergence after addition of DGLA): PiDes5 transformant, total fatty acids. From the text:
(§1) The open reading frames (ORFs) encoding for the […], Δ6, and Δ5 desaturases were amplified using PfuUltra II fusion HS DNA polymerase (Stratagene, La Jolla, Calif., USA) with the respective primer pairs (Table 1). The forward primers contained a restriction site (underlined) and a yeast translation consensus (double underlined) followed by ATG. The reverse primers contained a restriction site (underlined) and a stop codon (double underlined). Following restriction and ligation to the pYES2 vector (Invitrogen, Carlsbad, Calif., USA), the constructs were used to transform S. cerevisiae strain W303 by the PEG/lithium acetate method [R. D. Gietz, R. A. Woods, Yeast Transformation by the LiAc/SS Carrier DNA/PEG Method, in: W. Xiao (Ed.), Yeast Protocols, Second Edition, vol. 313, Methods in Molecular Biology, Humana Press Inc, Totowa, N. J., 2006, pp. 107-120]. The yeast cells harboring the empty pYES2 vector were used as control. Transformants were selected by uracil prototrophy on yeast synthetic medium (YSM) lacking uracil (Invitrogen, Carlsbad, Calif., USA). For functional expression, a minimal selection medium containing 2% (w/v) raffinose was inoculated with the pYPiDesΔ12, pYPiDesΔ6 or pYPiDesΔ5 transformants and grown at 27° C. for 24 h in a water bath shaker. Five ml of sterile YSM, containing 1% (w/v) Tergitol-40 and 250 µM of the appropriate fatty acid substrate was inoculated with raffinose-grown cultures to obtain an OD of 0.2 at 600 nm. Expression was induced by adding galactose to a final concentration of 2% (w/v) and cultures were further grown at 27° C. for 48 h. Cells were harvested by centrifugation, washed twice with 0.1% NaHCO^3, freeze-dried and used for fatty acid analysis.
(§2) Fatty acid methyl esters (FAMES) were obtained by transmethylation of the freeze-dried P. incisa or yeast biomass, with dry methanol containing 2% H2SO4 (v/v) and heating at 80° C. for 1.5 h while stirring under an argon atmosphere. Gas chromatographic analysis of FAMES was performed on a Thermo Ultra Gas chromatograph (Thermo Scientific, Italy) equipped with PTV injector, FID detector and a fused silica capillary column (30 m×0.32 mm; ZB WAXplus, Phenomenex). FAMES were identified by co-chromatography with authentic standards (Sigma Chemical Co., St. Louis, Mo.; Larodan Fine Chemicals, Malmo, Sweden) and FAME of fish oil (Larodan Fine Chemicals). Each sample was analyzed in duplicates of three independent experiments. The structures of fatty acids were confirmed by GC-MS of their pyrrolidine derivatives [W. W. Christie, The analysis of fatty acids in: W. W. Christie (Ed.), Lipid analysis Isolation, separation, identification and structural analysis of lipids, vol. 15, Third edition, The Oily Press, Bridgewater, England, 2003, pp. 205-225] on HP 5890 equipped with a mass selective detector (HP 5971A) utilizing a HP-5 capillary column and a linear temperature gradient from 120 to 300° C.
The functional activities of the proteins encoded by PiDes12, PiDes6 and PiDes5 were examined by heterologous expression in S. cerevisiae. To this aim, the pYES2 constructs pYPiDes12, pYPiDes6 and pYPiDes5 containing the ORFs for PiDes12, PiDes6, and PiDes5, respectively, were transformed into S. cerevisiae. […] An attempt to improve the expression of the recombinant protein and to increase the activity by the modification of yeast translation consensus was not successful.
PiDes6 and PiDes5 expressions were induced in the presence of the main ω6 substrates for Δ6 or Δ5 fatty acid desaturases, 18:2ω6 and 20:3ω6, respectively. New peaks corresponding to 18:3ω6 and 20:4ω6, respectively, were detected, confirming the predicted function of PiDes6 and PiDes5. […] PiDes6 was not active on […] either, whereas PiDes5 desaturated it to the non-methylene-interrupted 20:4^Δ5,11,14,17. PiDes5 converted 20:4ω3 into the respective Δ5 product, 20:5ω3 (EPA) as well as the added 18:1 into the non-methylene-interrupted 18:2^Δ5,9 (FIG. 3). […]

In data set [2] the test system is 20:3ω6 in lipid classes of S. cerevisiae. The data set is described as follows: Fatty acid analysis of individual lipid classes of S. cerevisiae expressing the PiDes5 ORF, fed with 20:3ω6. The data set is classed as cell-based, Saccharomyces cerevisiae. The note with it: for % conversion: 24 h after feeding 20:3ω6.
From the text: as §1, §2
The biomass of S. cerevisiae was heated with isopropanol at 80° C. for 10 min and lipids were extracted by the method of Bligh-Dyer (1959) [E. G. Bligh, W. J. Dyer, A rapid method of total lipid extraction and purification, Can. J. Biochem. Physiol. 37 (1959) 911-917]. Total lipid extract was separated into neutral and polar lipids by silica Bond-Elute cartridges (Varian, Calif.) using 1% of ethanol in chloroform (v/v) and methanol to elute neutral and polar lipids, respectively [Z. Cohen, S. Didi, Y. M. Heimer, Overproduction of γ-linolenic and eicosapentaenoic acids by algae, Plant Physiol. 98 (1992) 569-572]. […]

Where [3] appears, read: substrate 18:1^Δ9, PiDesΔ5 product 18:2^Δ5,9, product/(substrate + product).
Where [4] appears, read: substrate 18:3^Δ9,12,15, PiDesΔ6 product 18:4^Δ6,9,12,15, PiDesΔ5 product 18:4^Δ5,9,12,15 (tentative identification).
Setting [5] is: substrate 20:3^Δ11,14,17, PiDesΔ5 product 20:4^Δ5,11,14,17.

Where “and” joins values, the source holds several entries; their conditions need not be identical. Identical values can stand only once. Marks after values point to notes of the source that are not given here.

B1: PiDes5: P. incisa Δ5 desaturase, predicted protein of 482 amino acids, SEQ ID NO: 3 (protein, listed as Parietochloris incisa)
chain: MMAVTEGAGGVTAEVGLHKRSSQPRPAAPRSKLFTLDEVAKHDSPTDCWVVIRRRVYDVTAWVPQHPGGNLIFVKAGRDCTQLFDSYHPLSARAVLDKFYIGEVDVRPGDEQFLVAFEEDTEEGQFYTVLKKRVEKYFRENKLNPRATGAMYAKSLTILAGLALSFYGTFFAFSSAPASLLSAVLLGICMAEVGVSIMHDANHGAFARNTWASHALGATLDIVGASSFMWRQQHVVGHHAYTNVDGQDPDLRVKDPDVRRVTKFQPQQSYQAYQHIYLAFLYGLLAIKSVLLDDFMALSSGAIGSVKVAKLTPGEKLVFWGGKALWLGYFVLLPVVKSRHSWPLLAACWLLSEFVTGWMLAFMFQVAHVTSDVSYLEADKTGKVPRGWAAAQAATTADFAHGSWFWTQISGGLNYQVVHHLFPGICHLHYPAIAPIVLDTCKEFNVPYHVYPTFVRALAAHFKHLKDMGAPTAIPSLATVG
As for B1, the “substrate conversion (ARA emergence after addition of DGLA)” value in data set [1] (after 3 h) was 10.9% and 10.6%; in data set [1] (after 24 h), 15.1%. Also, the “Desaturase product and conversion (%) of supplied fatty acid” value is given as 18:2^Δ5,9 (4.2) % in data set [1] (setting [3]); 18:4^Δ5,9,12,15** (1.4) % in data set [1] (setting [4]); 20:4^Δ5,8,11,14 (16.4) % in data set [1] (substrate 20:3^Δ8,11,14, PiDesΔ5 product 20:4^Δ5,8,11,14); 20:4^Δ5,11,14,17 (10.0) % in data set [1] (setting [5]); 20:5^Δ5,8,11,14,17 (17.1) % in data set [1] (substrate 20:4^Δ8,11,14,17, PiDesΔ5 product 20:5^Δ5,8,11,14,17). Moreover, the “20:4ω6, fatty acid composition” value in data set [2] (lipid class DAG) was 2.0 % of total fatty acids; in data set [2] (lipid class FFA), 3.6 % of total fatty acids; in data set [2] (lipid class PC) it was 3.6 % of total fatty acids; in data set [2] (lipid class PE), 1.6 % of total fatty acids; in data set [2] (lipid class PI + PS) it was 1.1 % of total fatty acids; in data set [2] (lipid class SE), 1.1 % of total fatty acids. In data set [2] (lipid class TAG), the “20:4ω6, fatty acid composition” value is on record as 2.0 % of total fatty acids. Besides, the “% conversion” value in data set [2] (lipid class DAG) was found to be 24.0%; in data set [2] (lipid class FFA), 17.2%; in data set [2] (lipid class PC) it was 24.2%; in data set [2] (lipid class PE), 24.6%; in data set [2] (lipid class PI + PS), 18.1%; in data set [2] (lipid class SE), 8.4%. Also, in data set [2] (lipid class TAG), the “% conversion” value was found to be 9.3%. The “20:4ω6 share by lipid class (% of total lipid)” value in data set [2] (share found in lipid class DAG) amounted to 1.4 % TL; in data set [2] (share found in lipid class FFA), 9.1 % TL; in data set [2] (share found in lipid class PC) it was 25.7 % TL; in data set [2] (share found in lipid class PE), 2.3 % TL; in data set [2] (share found in lipid class PI + PS) it was 4.4 % TL; in data set [2] (share found in lipid class SE), 1.8 % TL. In data set [2] (share found in lipid class TAG), the “20:4ω6 share by lipid class (% of total lipid)” value was found to be 55.2 % TL.

B2: PiDes12: P. incisa Δ12 desaturase, predicted protein of 380 amino acids, SEQ ID NO: 1 (protein, listed as Parietochloris incisa)
chain: MGKGGCYQAGPPSAKKWESRVPTAKPEFTIGTLRKAIPVHCFERSIPRSFAYLAADLAAIAVMYYLSTFIDHPAVPRVLAWGLLWPAYWYFQGAVATGVWVIAHECGHQAFSPYQWLNDAVGLVLHSCLLVPYYSWKHSHRRHHSNTGSTTKDEVFVPREAAMVESDFSLMQTAPARFLVIFVSLTAGWPAYLFANASGRKYGKWANHFDPYSPIFTKRERSEIVVSDVALTVVIAGLYSLGKAFGWAWLVKEYVIPYLIVNMWLVMITLLQHTHPELPHYADKEWDWLRGALATCDRSYGGMPDHLHHHIADTHVAHHLFSTMPHYHAQEATEAIKPILGKYYKQDKRNVWAALWEDFSLCRYVAPDTAGSGILWFRA
For the molecule B2, the desaturation activity entry in data set [1] (heterologous expression in yeast) is on record as “very low desaturation activity”. In data set [1] (yeast transformed with pYPiDes12), the “peak corresponding to 18:2” value is recorded as 0.3 % of TFA.

B3: PiDes6: P. incisa Δ6 desaturase, predicted protein of 481 amino acids, SEQ ID NO: 2 (protein, listed as Parietochloris incisa)
chain: MCQGQAVQGLRRRSSFLKLTGDAIKGAVAAISDFNKLPAATPVFARRSLSDSALQQRDGPRSKQQVTLEELAQHNTPEDCWLVIKNKVYDVSGWGPQHPGGHVIYTYAGKDATDVFACFHAQTTWSQLRPFCIGDIVEEEPMPALLKDFRELRTRLQQQGLFRSNKLYYLYKVASTLSLLAAALAVLITQRDSWLGLVGGAFLLGLFWQQSGWLAHDFLHHQVFTDRQWNNVMGYFLGNVCQGFSTDWWKSKHNVHHAVPNELDSDSKAARDPDIDTLPLLAWSSEMLDSMSNSGARLFVRMQHYFFFPILLFARMSWCQQSVAHASDLSRTSKAGVYELAYLALHYAWFLGAAFSVLPPLKAVVFALLSQMFSGFLLSIVFVQSHNGMEVYSDTKDFVTAQIVSTRDILSNVWNDWFTGGLNYQIEHHLFPTLPRHNLGKVQKSIMELCHKHGLVYENCGMATGTYRVLQRLANVAAEA
For B3, the “Desaturase product and conversion (%) of supplied fatty acid” value in data set [1] (setting [3]) is “neither active”; in data set [1] (substrate 18:2^Δ9,12, PiDesΔ6 product printed 18:2^Δ6,9,12, product/(substrate + product)), 18:2^Δ6,9,12 (5.1) %; in data set [1] (setting [4]), 18:4^Δ6,9,12,15 (4.5) %; in data set [1] (setting [5]), “not active”.
